The source of these data is the supplement of paper PMC7125110.

The labels stand for the following.
B1: glmS ribozyme (parent)
chain: AUAAAAGCGCCAGAACUACAGAAAUGUAGUUGACGAGGAGGAGGUUUAUCGAAUUUUCGGCGGAUGCCUCCAAA

± gives the standard error. For some of these results: This sample holds only a part of the variants without activity.

What all share (settings): with glucosamine-6-phosphate
The variants in data set [1] derive from B1. Nature of the data set: kcat; higher = faster cleavage; RNA array. The gist of the method: (§1)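 Tiles of sequenced MiSeq chips were imaged over ~14 h at 37 °C. On them, barcoded ribozyme variants had been transcribed in situ by E. coli RNA polymerase and were tracked via a hybridised Cy3 probe while glucosamine-6-phosphate (40 μM to 10 mM) in HEPES/KCl/Mg(OAc)2 buffer flowed in. Per-tile medians, normalised to baseline and to non-cleaving reference variants, were fit to one- or two-exponential decays for kobs, and weighted Michaelis–Menten fits gave kcat and KM.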

Data set [2] covers variants of B1. Nature of the data set: KM; higher = weaker cofactor use; RNA array. An outline of the steps: as §1
The variants in data set [3] derive from B1. Nature of the data set: self-cleavage kobs at 640 uM GlcN6P; higher = faster cleavage; RNA array. An outline of the steps: as §1
Variants of B1 are the subject of data set [4]. Nature of the data set: self-cleavage kobs at 2500 uM GlcN6P; higher = faster cleavage; RNA array. The gist of the method:
as §1

Data set [5] covers variants of B1. Nature of the data set: self-cleavage kobs at 10000 uM GlcN6P; higher = faster cleavage; RNA array. An outline of the steps: as §1
The variants in data set [6] derive from B1. Nature of the data set: self-cleavage kobs at 160 uM GlcN6P; higher = faster cleavage; RNA array. An outline of the steps: as §1
The variants in data set [7] derive from B1. Nature of the data set: self-cleavage kobs at 40 uM GlcN6P; higher = faster cleavage; RNA array. The gist of the method:
as §1

For A33C U46G, in data set [1], the kcat (in general, the maximal rate divided by the concentration of active sites) turned out to be 9.24e-05 ± 1.2e-05 s⁻¹. Further, the KM (as a rule, the concentration of substrate that gives half-maximal velocity) in data set [2] stood at 1050 ± 490 µM. Moreover, the “self-cleavage kobs at 640 uM GlcN6P” value in data set [3] is 2.94e-05 ± 1.3e-05 s⁻¹. Also, the “self-cleavage kobs at 2500 uM GlcN6P” value in data set [4] is 8.65e-05 ± 2.1e-05 s⁻¹. Further, the “self-cleavage kobs at 10000 uM GlcN6P” value in data set [5] was 7.98e-05 ± 1.3e-05 s⁻¹.
On to G13U A48C, for which the KM in data set [2] amounted to 3030 ± 610 µM.
As to G26U C70A, in data set [1], the kcat turned out to be 0.000113 ± 4.5e-05 s⁻¹. For the same variant, in data set [6], the “self-cleavage kobs at 160 uM GlcN6P” value came to 7.79e-05 ± 2.3e-05 s⁻¹. Also, the “self-cleavage kobs at 640 uM GlcN6P” value in data set [3] was found to be 6.27e-05 ± 1.2e-05 s⁻¹. Further, in data set [4], the “self-cleavage kobs at 2500 uM GlcN6P” value was determined as 0.0002 ± 4e-05 s⁻¹. For the same variant, in data set [5], the “self-cleavage kobs at 10000 uM GlcN6P” value amounted to 0.000106 ± 1.9e-05 s⁻¹.
Regarding A12U A15U A39C, in data set [1], the kcat was 0.000282 ± 8.6e-05 s⁻¹. Moreover, in data set [6], the “self-cleavage kobs at 160 uM GlcN6P” value amounted to 6.33e-05 ± 1.3e-05 s⁻¹. Also, the “self-cleavage kobs at 640 uM GlcN6P” value in data set [3] was 9.89e-05 ± 1.6e-05 s⁻¹. For the same variant, the “self-cleavage kobs at 2500 uM GlcN6P” value in data set [4] amounted to 0.000199 ± 3.2e-05 s⁻¹. In addition, the “self-cleavage kobs at 10000 uM GlcN6P” value in data set [5] stood at 0.000374 ± 8.8e-05 s⁻¹.
Take C16G A53G: in data set [1], the kcat came to 0.00701 ± 0.0012 s⁻¹. Further, the KM in data set [2] turned out to be 2160 ± 510 µM. For the same variant, in data set [7], the “self-cleavage kobs at 40 uM GlcN6P” value amounted to 0.000168 ± 3.2e-05 s⁻¹. Moreover, the “self-cleavage kobs at 160 uM GlcN6P” value in data set [6] turned out to be 0.000453 ± 7.3e-05 s⁻¹. Further, the “self-cleavage kobs at 640 uM GlcN6P” value in data set [3] was determined as 0.00151 ± 0.00025 s⁻¹. In data set [4], the “self-cleavage kobs at 2500 uM GlcN6P” value worked out at 0.00339 ± 0.00099 s⁻¹. Moreover, the “self-cleavage kobs at 10000 uM GlcN6P” value in data set [5] worked out at 0.0061 ± 0.0011 s⁻¹.
For the variant C34U A53G C68G, in data set [7], the “self-cleavage kobs at 40 uM GlcN6P” value was determined as 7.28e-05 ± 3.2e-05 s⁻¹. For the same variant, the “self-cleavage kobs at 10000 uM GlcN6P” value in data set [5] amounted to 0.000655 ± 0.00017 s⁻¹.
Turning to A15G U54A, the KM in data set [2] came to 508 ± 200 µM. The “self-cleavage kobs at 40 uM GlcN6P” value in data set [7] was found to be 0.000663 ± 0.00011 s⁻¹. In data set [6], the “self-cleavage kobs at 160 uM GlcN6P” value is 0.00251 ± 0.00049 s⁻¹. Besides, the “self-cleavage kobs at 640 uM GlcN6P” value in data set [3] came to 0.006 ± 0.0015 s⁻¹. Also, in data set [4], the “self-cleavage kobs at 2500 uM GlcN6P” value is 0.00683 ± 0.0018 s⁻¹. Also, the “self-cleavage kobs at 10000 uM GlcN6P” value in data set [5] was determined as 0.0333 ± 0.014 s⁻¹.
Turning to G13U A14U U30C A33C C71A, the “self-cleavage kobs at 40 uM GlcN6P” value in data set [7] is under 1e-05 s⁻¹. Also, in data set [5], the “self-cleavage kobs at 10000 uM GlcN6P” value was under 1e-05 s⁻¹.
On to G40U C58G, for which the KM in data set [2] was determined as 4730 ± 1300 µM.
U46G C67A: the kcat in data set [1] was determined as 0.00184 ± 0.00032 s⁻¹. In data set [2], the KM worked out at 818 ± 220 µM. Further, the “self-cleavage kobs at 40 uM GlcN6P” value in data set [7] stood at 0.000105 ± 1.1e-05 s⁻¹. In data set [6], the “self-cleavage kobs at 160 uM GlcN6P” value is 0.000224 ± 3.9e-05 s⁻¹. Moreover, the “self-cleavage kobs at 640 uM GlcN6P” value in data set [3] was 0.000783 ± 0.0001 s⁻¹. Besides, the “self-cleavage kobs at 2500 uM GlcN6P” value in data set [4] is 0.00146 ± 0.00022 s⁻¹. The “self-cleavage kobs at 10000 uM GlcN6P” value in data set [5] stood at 0.00173 ± 0.00021 s⁻¹.
Turning to U45C C61U, the “self-cleavage kobs at 40 uM GlcN6P” value in data set [7] is under 1e-05 s⁻¹. Moreover, in data set [6], the “self-cleavage kobs at 160 uM GlcN6P” value was under 1e-05 s⁻¹. In addition, the “self-cleavage kobs at 640 uM GlcN6P” value in data set [3] was under 1e-05 s⁻¹. Moreover, in data set [5], the “self-cleavage kobs at 10000 uM GlcN6P” value was under 1e-05 s⁻¹.
For the variant C50G A64G C71A, the “self-cleavage kobs at 40 uM GlcN6P” value in data set [7] came to 8.51e-05 ± 2.3e-05 s⁻¹. The “self-cleavage kobs at 10000 uM GlcN6P” value in data set [5] turned out to be 9.96e-05 ± 2.1e-05 s⁻¹.
Consider U54C U57C, for which, in data set [1], the catalytic constant (kcat) was 0.000143 ± 2e-05 s⁻¹. For the same variant, in data set [2], the KM amounted to 3450 ± 1100 µM. Moreover, the “self-cleavage kobs at 2500 uM GlcN6P” value in data set [4] amounted to 6.28e-05 ± 1.1e-05 s⁻¹. Also, the “self-cleavage kobs at 10000 uM GlcN6P” value in data set [5] was determined as 0.000105 ± 1.6e-05 s⁻¹.
As for A6C G37A, in data set [7], the “self-cleavage kobs at 40 uM GlcN6P” value was under 1e-05 s⁻¹. Moreover, the “self-cleavage kobs at 160 uM GlcN6P” value in data set [6] is under 1e-05 s⁻¹. Further, the “self-cleavage kobs at 2500 uM GlcN6P” value in data set [4] is under 1e-05 s⁻¹. Besides, the “self-cleavage kobs at 10000 uM GlcN6P” value in data set [5] was under 1e-05 s⁻¹.
G37A U45A: in data set [1], the kcat was 0.00537 ± 0.00043 s⁻¹. In data set [2], the KM was 1760 ± 210 µM. Further, in data set [7], the “self-cleavage kobs at 40 uM GlcN6P” value worked out at 0.000126 ± 1.4e-05 s⁻¹. Also, the “self-cleavage kobs at 160 uM GlcN6P” value in data set [6] turned out to be 0.000452 ± 8.9e-05 s⁻¹. In addition, the “self-cleavage kobs at 640 uM GlcN6P” value in data set [3] worked out at 0.00131 ± 0.00021 s⁻¹. In addition, the “self-cleavage kobs at 2500 uM GlcN6P” value in data set [4] was 0.0027 ± 0.0006 s⁻¹. For the same variant, the “self-cleavage kobs at 10000 uM GlcN6P” value in data set [5] was 0.00477 ± 0.00049 s⁻¹.
With A6C A53C, in data set [1], the kcat was 2.09e-05 ± 4.9e-07 s⁻¹. Moreover, the Michaelis-Menten constant (KM) in data set [2] came to 1550 ± 150 µM. Further, the “self-cleavage kobs at 160 uM GlcN6P” value in data set [6] was under 1e-05 s⁻¹. The “self-cleavage kobs at 640 uM GlcN6P” value in data set [3] is under 1e-05 s⁻¹.
G32A C50G G60A C68G: the “self-cleavage kobs at 40 uM GlcN6P” value in data set [7] is 6.94e-05 ± 1.7e-05 s⁻¹. The “self-cleavage kobs at 10000 uM GlcN6P” value in data set [5] was determined as 5.25e-05 ± 1.1e-05 s⁻¹.
Turning to G7U G43A, the “self-cleavage kobs at 40 uM GlcN6P” value in data set [7] was under 1e-05 s⁻¹. Also, the “self-cleavage kobs at 160 uM GlcN6P” value in data set [6] was under 1e-05 s⁻¹. In data set [3], the “self-cleavage kobs at 640 uM GlcN6P” value was under 1e-05 s⁻¹. For the same variant, in data set [4], the “self-cleavage kobs at 2500 uM GlcN6P” value was under 1e-05 s⁻¹. In data set [5], the “self-cleavage kobs at 10000 uM GlcN6P” value was under 1e-05 s⁻¹.
